Assay [1] has as its target CC-chemokine receptor CCR5 (UniProt P51681). The assay can be described thus: cell-based or functional assay.
Assay [2] has the same target. The assay can be described thus: flow cytometry on mitogen-stimulated PBMC, m.f.i.

Chain of UniProt P51681 (P51681 whole entry): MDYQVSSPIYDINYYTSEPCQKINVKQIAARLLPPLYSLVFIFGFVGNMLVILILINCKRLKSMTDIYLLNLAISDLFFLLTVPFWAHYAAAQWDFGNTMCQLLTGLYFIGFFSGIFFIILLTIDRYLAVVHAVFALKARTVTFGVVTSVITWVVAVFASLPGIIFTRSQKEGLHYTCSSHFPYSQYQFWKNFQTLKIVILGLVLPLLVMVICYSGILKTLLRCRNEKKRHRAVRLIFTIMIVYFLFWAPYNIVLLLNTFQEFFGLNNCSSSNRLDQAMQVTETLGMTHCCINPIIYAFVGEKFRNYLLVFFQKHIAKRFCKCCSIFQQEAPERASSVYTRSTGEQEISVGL

As to anti-CCR5 monoclonal antibody PA14, in assay [1], the IC50, inhibition of JR-FL entry (luciferase entry assay) is 0.024 µg/mL; the IC50, inhibition of fusion between PM1 cells and HeLa-EnvJR-FL+ cells (RET assay) was 1.7 µg/mL; the IC50 for calcium influx inhibition, ratio against 2D7 is 8 fold. In assay [2], this substance gave a fold difference in m.f.i. against PA9 of 7 fold.

As to anti-CCR5 mAb 2D7 (antibody), in assay [1], the IC50, inhibition of JR-FL entry (luciferase entry assay) came to 0.026 µg/mL; the IC50, inhibition of fusion between PM1 cells and HeLa-EnvJR-FL+ cells (RET assay) came to 1.6 µg/mL; the K (equal to the IC50 value), inhibition of cell-cell fusion, median effect fit (RET assay) is 0.36 µg/mL.

These data come from patent US20030228306A1.
